The values that follow are results of earlier work, collected in publication PMC4059559.

In one data set the target is His131 (UniProt position 131, WGVCTHLGCVP). In words: other.
The next data set deals with His152 (UniProt position 152, WFCPCHGSHYD). In words: other.
Setting [1] is: oxidised ISP (ISPox), isolated protein.

Turning to “Rieske iron-sulfur protein (ISP) of the cytochrome bc1 complex, isolated (Rhodobacter sphaeroides)”, the pKa in the data set with His131 (setting [1]) is reported as approximately 9.6; with His131 (reduced ISP (ISPH)), ~12–13; with His152 (setting [1]), approximately 7.6; in the data set with His152 (reduced ISP (ISPH)) it was ~12–13.

Usually pKa stands for the negative logarithm of the acid dissociation constant.
